Measured values from patent publication US20250249113A1, “LIGAND-DRUG-CONJUGATES WITH IMPROVED PHARMACOKINETIC AND DRUG RELEASE PROPERTIES” (Debiopharm Research & Manufacturing S.A., priority 2022, published 2025).

Tests used:
Assay in all cases: In vitro cytotoxicity on DLBCL cell lines panel (CellTiter Glo)
Format in all cases: cell-based
DOHH-2 cells = details: DOHH-2 cell line, 72 hours of incubation, relative IC50
Description: (§1) After 72 hours of incubation, plates were inspected under an inverted microscope to ensure growth of the controls and sterile conditions. Then, 50 μL CellTiter Glo (Promega, G7572) were added prior to luminescence reading as per the manufacturer's instructions. Relative IC50 were calculated using GraphPad Prism.

Toledo cells = details: Toledo cell line, 72 hours of incubation, relative IC50
Description: as §1

Pfeiffer cells = details: Pfeiffer cell line, 72 hours of incubation, relative IC50
Description: as §1

OCI-LY19 cells = details: OCI-LY19 cell line, 72 hours of incubation, relative IC50
Description: as §1

SU-DHL-2 cells = details: SU-DHL-2 cell line, 72 hours of incubation, relative IC50
Description: as §1

WSU-NHL cells = details: WSU-NHL cell line, 72 hours of incubation, relative IC50
Description: as §1

SU-DHL-6 cells = details: SU-DHL-6 cell line, 72 hours of incubation, relative IC50
Description: as §1

KARPAS-422 cells = details: KARPAS-422 cell line, 72 hours of incubation, relative IC50
Description: as §1

SU-DHL-8 cells = details: SU-DHL-8 cell line, 72 hours of incubation, relative IC50
Description: as §1

WSU-DLCL2 cells = details: WSU-DLCL2 cell line, 72 hours of incubation, relative IC50
Description: as §1

A3/KAW cells = details: A3/KAW cell line, 72 hours of incubation, relative IC50
Description: as §1

U-2932 cells = details: U-2932 cell line, 72 hours of incubation, relative IC50
Description: as §1

SU-DHL-4 cells = details: SU-DHL-4 cell line, 72 hours of incubation, relative IC50
Description: as §1

OCI-LY7 cells = details: OCI-LY7 cell line, 72 hours of incubation, relative IC50
Description: as §1

OCI-LY3 cells = details: OCI-LY3 cell line, 72 hours of incubation, relative IC50
Description: as §1

HBL-1 cells = details: HBL-1 cell line, 72 hours of incubation, relative IC50
Description: as §1

SU-DHL-5 cells = details: SU-DHL-5 cell line, 72 hours of incubation, relative IC50
Description: as §1

B1: Debio 1562: Comparative example: naratuximab reacted with crosslinking reagent SMCC and the maytansinoid DM1; DAR 3.5 (conjugate, chains of the INN, looked up)
VH: QVQVQESGPGLVAPSQTLSITCTVSGFSLTTSGVSWVRQPPGKGLEWLGVIWGDGSTNYHPSLKSRLSIKKDHSKSQVFLKLNSLTAADTATYYCAKGGYSLAHWGQGTLVTVSS
VL: DIQMTQSPSSLSVSVGERVTITCRASENIRSNLAWYQQKPGKSPKLLVNVATNLADGVPSRFSGSGSGTDYSLKINSLQPEDFGTYYCQHYWGTTWTFGQGTKLEIK
modifications: SMCC-DM1, DAR 3.5
IC50 (DOHH-2 cells): 0.949 nM
IC50 (Toledo cells): 90 nM
IC50 (Pfeiffer cells): 73.5 nM
IC50 (OCI-LY19 cells): 45.5 nM
IC50 (SU-DHL-2 cells): 7.78 nM
IC50 (WSU-NHL cells): 0.19 nM
IC50 (SU-DHL-6 cells): 1.74 nM
IC50 (KARPAS-422 cells): 20.5 nM
IC50 (SU-DHL-8 cells): 21.5 nM
IC50 (WSU-DLCL2 cells): 9.59 nM
IC50 (A3/KAW cells): 33 nM
IC50 (U-2932 cells): 3.57 nM
IC50 (SU-DHL-4 cells): 0.983 nM
IC50 (OCI-LY7 cells): 79.3 nM
IC50 (OCI-LY3 cells): 0.352 nM
IC50 (HBL-1 cells): 0.217 nM
IC50 (SU-DHL-5 cells): 0.901 nM
